Results taken from US9265844B2, “Protease degradable polypeptides and uses thereof” (THE METHODIST HOSPITAL SYSTEM, priority 2010, dated 2016).
Each block holds one compound with its values, some of them ahead of it. No end group written: not given here. d = 2'-deoxy (DNA); r = 2'-OH (RNA)

Columns and labels:
HeLa cells = assay: Live cell imaging by fluorescence microscopy; format: cell-based, human; details: compared with 5L AuNPs
Procedure: Fluorescence images of live cells were acquired using a fluorescence microscopy system (Olympus, Tokyo, Japan). Briefly, HeLa and MDA-MB231 cells were collected by trypsinization, counted, and plated in a 96-well black clear-bottom culture plate (Corning Life Sciences, Pittston, Pa.) at a density of 1×10^3 cells per well. After 1 day, AuNPs (2.52×10^8 particles) were added and incubated for 12 hours. Cells were then washed three times with PBS and cultured in phenol red-free medium and imaged with a fluorescence microscopy at the time points indicated. In a separate set of experiment, cells were treated with CellTrackers, CM-DiI (2 μM), or CMTMR (7.5 μM, Invitrogen). One day after cell seeding, HeLa and MDA-MB231 cells were incubated with CM-DiI for 5 minutes at 37° C. and then further incubated at 4° C. for an additional 15 minutes according to manufacturer's protocol. After removing the medium, the cells were then incubated for an additional 15 minutes at 4° C. For CMTMR study, cells were incubated with CMTMR for 30 minutes at 37° C. and the medium was then replaced with fresh medium and incubated for a further 30 minutes. After labeling with CM-DiI or CMTMR, cells were washed three times with PBS and cultured in phenol red-free medium and imaged under a fluorescence microscopy as indicated.

Jurkat cells = assay: Fluorescence retention, flow cytometry; format: cell-based; details: day 4
Procedure: Jurkat cells (1.0×10^6 cells) were seeded in a 12-well culture plate (BD Falcon, San Jose, Calif.) together with 5L AuNPs (1.26×10^9 particles) in 400 μl RPMI 1640 medium and cultured for 24 hours in the dark at 37° C. in a 5% CO2 atmosphere. Cells (4×10^5) were then transferred to a FACS tube after three washes with PBS, and the FITC fluorescence signal inside the cells was measured using a BD LSR II flow cytometry (BD Biosciences, San Jose, Calif.). Remaining cells were cultured in 6-well culture plates (BD Falcon) in 4 ml RPMI 1640 medium. The procedure was repeated at different time points, up to 21 days. In a separate set of experiments, Jurkat cells (1.0×10^6) were incubated with CM-DiI (1 μM) or CMTMR (2 μM) following the manufacturer's instructions. On the designated day, the fluorescence signal of CM-DiI or CMTMR was measured using a PE filter set by a BD LSR II flow cytometry.

Cath E [1] = target: T1, Cath E (Homo sapiens, UniProt P14091); assay: Ex vivo NIRF imaging of MDA PATC-3 orthotopic tumors in mice; parameters: endogenous in cells; host or cells: primary patient PDAC tumour grafts (subcutaneous) and MDA PATC-3 orthotopic tumours in immunodeficient mice; details: organs excised, 48 hours after iv probe
T1 sequence (P14091 54-396): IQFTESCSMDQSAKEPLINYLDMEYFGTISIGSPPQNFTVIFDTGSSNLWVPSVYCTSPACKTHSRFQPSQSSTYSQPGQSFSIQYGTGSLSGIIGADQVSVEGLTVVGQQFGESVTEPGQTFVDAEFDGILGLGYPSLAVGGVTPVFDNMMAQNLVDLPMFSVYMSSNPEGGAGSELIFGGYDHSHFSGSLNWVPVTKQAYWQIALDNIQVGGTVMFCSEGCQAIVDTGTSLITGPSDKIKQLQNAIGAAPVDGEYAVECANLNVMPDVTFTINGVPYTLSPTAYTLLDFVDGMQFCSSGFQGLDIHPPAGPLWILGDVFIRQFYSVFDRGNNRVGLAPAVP
Procedure: To establish orthotopic tumors, mice were anesthetized as described above, and the pancreas was exposed through a left abdominal incision (laparotomy). Subconfluent MDA PATC-3 cells were detached with 0.25% trypsin-EDTA and cell viability was assessed by trypan blue exclusion. Cells (1×10^6) were resuspended in 50 uL of Hanks Balanced Salt Solution (HBSS) and directly injected into the pancreas (caudal). After tumor implantation, the pancreas was carefully returned to the peritoneal cavity and the abdomen was closed. Two months after tumor implantation, fluorescent probe was injected via tail vein and imaged 48 hours after injection.
(§1) Subcutaneous models (human material PDAC tumor grafts with mice bearing 2 tumors each n=4, MDA PATC-3 orthotopic model n=3, MPanc96 expressing low levels of Cath E (MPanc96-FG30) n=10, and MPanc96 expression high levels of Cath E (Mpanc96-Cath E) n=10) and two transgenic models with litter controls (n=5 each) were used to assess the usefulness of the Cath E-activatable imaging probe. […] White light and near infrared fluorescence (NIRF) images were acquired sequentially using Cy5.5 fluorescence filters (615-665 nm excitation filter and 695-770 nm emission filter). […] Fluorescence variations between different organs/tissues were corrected by subtracting the autofluorescence signals obtained from imaging organs/tissues of mice without any probe injected. […]

Cath E [2] = target: T2, Cath E (Mus musculus, UniProt P70269); assay: Ex vivo NIRF imaging of GEMM pancreas with PanIN lesions; format: in vivo; details: 48 hours after probe injection, 2 months old mice
T2 construct: from tissue; host or cells: pancreas, PDAC tumours and PanIN lesions of GEMMs (cLGL-KRasG12V/Bac-Ela-CreER; p53 conditional deletion/LSL-KrasG12D/Pdx1-Cre)
T2 sequence (P70269 60-397): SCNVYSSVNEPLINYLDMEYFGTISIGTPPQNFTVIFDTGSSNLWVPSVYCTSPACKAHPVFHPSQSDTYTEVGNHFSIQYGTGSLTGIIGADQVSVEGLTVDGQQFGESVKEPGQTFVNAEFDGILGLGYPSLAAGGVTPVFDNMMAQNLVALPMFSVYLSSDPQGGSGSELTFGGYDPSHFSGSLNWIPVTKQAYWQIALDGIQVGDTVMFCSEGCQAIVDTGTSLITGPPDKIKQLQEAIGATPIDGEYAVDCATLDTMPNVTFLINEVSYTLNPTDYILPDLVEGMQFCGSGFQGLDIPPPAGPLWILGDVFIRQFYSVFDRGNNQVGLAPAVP
Procedure: To assess whether Cath E activity served as a biomarker for in vivo imaging, studies were performed in human pancreatic cancer xenografts in immunodeficient mice (acquired from the National Cancer Institute with age of the mice ranging from 5-6 weeks old) and transgenic mice. Animals were housed at the MD Anderson Cancer Center animal facility. Mice used for optical imaging studies were fed with a chlorophyll-free diet. Genetic PanINs and PDAC mouse models were developed by crossing cLGL-KRas^G12V with Bac-Ela-CreER mice as described previously (Ji et al., Gastroenterology 137:1072-82 (2009)). These animals developed PanINs at 2 months and PDAC by ˜6 months. […]
as §1, with “The mean fluorescence flux” for “Fluorescence variations between different organs/tissues were corrected by subtracting the autofluorescence signals obtained”, “each image was defined as photons per second per centimeter squared per steradian (p/s/cm^2/sr).” for “imaging organs/tissues of mice without any probe injected.”

Cath E [3] = target: T1, Cath E; assay: In vivo NIRF imaging of primary patient tumor grafts in mice; parameters: endogenous in cells; host or cells: primary patient PDAC tumour grafts (subcutaneous) and MDA PATC-3 orthotopic tumours in immunodeficient mice; details: 48 hours after iv probe, immunodeficient mice
Procedure: Human cancer specimens used for transplantation as primary tumor grafts were obtained from patients with pancreatic invasive ductal adenocarcinoma who had undergone initial surgical resection at UT MD Anderson Cancer Center (Kim et al., Nat. Protoc. 4:1670-80 (2009)). Nude mice were anesthetized with a single intraperitoneal injection of ketamine (100 mg/kg) and xylazine (10 mg/kg). After washing with sterile PBS, tumor fragments were placed in the subcutaneous space of immunodeficient mice (Kim et al., Nat. Protoc. 4:1670-80 (2009)). When the tumor was visible, it was dissected out and transplanted into male nude mice and allowed to grow for 30 days. […]
as §1, with “The mean fluorescence flux” for “Fluorescence variations between different organs/tissues were corrected by subtracting the autofluorescence signals obtained”, “each image was defined as photons per second per centimeter squared per steradian (p/s/cm^2/sr).” for “imaging organs/tissues of mice without any probe injected.”

Cath E [4] = target: T2, Cath E; assay: Ex vivo NIRF imaging of GEMM PDAC tumors; format: in vivo
Procedure: To assess whether Cath E activity served as a biomarker for in vivo imaging, studies were performed in human pancreatic cancer xenografts in immunodeficient mice (acquired from the National Cancer Institute with age of the mice ranging from 5-6 weeks old) and transgenic mice. Animals were housed at the MD Anderson Cancer Center animal facility. Mice used for optical imaging studies were fed with a chlorophyll-free diet. Genetic PanINs and PDAC mouse models were developed by crossing cLGL-KRas^G12V with Bac-Ela-CreER mice as described previously (Ji et al., Gastroenterology 137:1072-82 (2009)). These animals developed PanINs at 2 months and PDAC by ˜6 months. […] PDAC in these mice developed in 6-8 weeks after birth (Bardeesy et al., Proc. Natl. Acad. Sci. USA 103:5947-52 (2006)). Littermates without PDAC served as controls. LSL-KRas^G12D, p53 floxed, and Pdx-1-Cre genetic mice were obtained from the Mouse Models for Human Cancer Consortium Repository (Rockville, Md.).
Subcutaneous models (human material PDAC tumor grafts with mice bearing 2 tumors each n=4, MDA PATC-3 orthotopic model n=3, MPanc96 expressing low levels of Cath E (MPanc96-FG30) n=10, and MPanc96 expression high levels of Cath E (Mpanc96-Cath E) n=10) and two transgenic models with litter controls (n=5 each) were used to assess the usefulness of the Cath E-activatable imaging probe. Animals were injected with a single dose of the optical imaging probe (1 nmol/100 μl PBS) or saline (controls) intravenously through tail vein using a 30 gauge syringe needle. The anesthetized mice were placed in the heated imaging platform of IVIS-100/Spectrum optical imaging systems (Xenogen/Caliper, Mountain View, Calif.). White light and near infrared fluorescence (NIRF) images were acquired sequentially using Cy5.5 fluorescence filters (615-665 nm excitation filter and 695-770 nm emission filter). Mice were imaged 48 hours post probe intravenous injection. Mice were sacrificed and organs/tissues were excised and rinsed with PBS then imaged for their associated NIRF. Fluorescence variations between different organs/tissues were corrected by subtracting the autofluorescence signals obtained from imaging organs/tissues of mice without any probe injected. General illumination setting and image acquisition parameters were: epi-illumination; 0.5 sec. exposure time; f/stop=2; binning (HR)4; field of view (FOV=12.9 cm or 6.5 cm width and height). The mean fluorescence flux from each image was defined as photons per second per centimeter squared per steradian (p/s/cm^2/sr). Acquired images were analyzed using Living Image 3.1 software (Xenogen/Caliper, Alameda, Calif.). Fluorescence contrast, defined as radiance, was quantified using identical size regions of interest (ROI).

[5] = test system: firefly luciferase in MDA-MB231-luc2 cells; assay: Luciferase gene silencing, bioluminescence; format: cell-based, human; details: 5 days, same conditions
Procedure: For the examination of the gene silencing effect, bioluminescence measurement was performed after incubating with various multilayered AuNPs. Cells were seeded in a 96-well black clear bottom culture plate at a density of 2.5×10^3 (or 1.25×10^4 of LNCaP-luc2) cells per well. One day later, different sRAuNP (1.26×10^8 particles) were added to each well and cultured for an additional 24 hours. The cells were further cultured in phenol red free medium for another 5 days. Manufacturer's direction was followed for the transfection with Lipofectamine. Bioluminescence measurement was performed using IVIS 200 (Caliper) immediately after addition of 125 μg mL^−1 of D-Luciferin (Regis).

Compound: CCCCCCCCCCCCCCCCCCN1C(=CC=CC2=[N+](CCCCCCCCCCCCCCCCCC)c3ccccc3C2(C)C)C(C)(C)c2cc(CNC(=O)c3ccc(CCl)cc3)ccc21.[Cl-] [CM-DiI]
signal strength (HeLa cells): much weaker than that of the 5L AuNPs | fluorescence intensity, % of the original intensity (Jurkat cells): 8%

increase in fluorescence in pancreas with PanIN lesions compared to normal pancreas (Cath E [2]): ~3 fold | increase in fluorescence in pancreas tumors compared to normal pancreas (Cath E [4]; 48 hours after 1 nmol probe iv, pooled GEMMs): ~15 fold | tumor to non-tumor signal ratio, tumor/bone (Cath E [4]; 48 hours after probe): 2.6 | tumor to non-tumor signal ratio, tumor/kidney (Cath E [4]; 48 hours after probe): 1.9 | tumor to non-tumor signal ratio, tumor/lung (Cath E [4]; 48 hours after probe): 2.9 | tumor to non-tumor signal ratio, tumor/muscle (Cath E [4]; 48 hours after probe): 5.5 | tumor to non-tumor signal ratio, tumor/normal pancreas (Cath E [4]; 48 hours after probe): 2.2 | tumor to non-tumor signal ratio, tumor/small intestine (Cath E [4]; 48 hours after probe): 1.7 | tumor to non-tumor signal ratio, tumor/spleen (Cath E [4]; 48 hours after probe): 3.9
Compound: Cath E-activatable imaging probe: Cy5.5-labeled Ala-Gly-Phe-Ser-Leu-Pro-Ala-Gly-CysCONH2 (SEQ ID NO:29) loaded on D-polyethylene glycol protected grafted copolymer (DPGC) (AGFSLPAGC-NH2; also: Cy5.5 label, place not given here, loaded on D-polyethylene glycol protected grafted copolymer (DPGC))
fluorescence signal at orthotopic primary cell tumors (Cath E [1]): strong signal specifically localized to the tumors in the pancreas | fluorescence signal at subcutaneous patient tumor grafts (Cath E [3]): strong specific fluorescence signal localized to the implanted tumor grafts

Compound: Free unformulated siRNA: siRNA against luciferase, SEQ ID NO:17/18, unformulated (chain 1 CGUACGCGGAAUACUUCGATT; chain 2 UCGAAGUAUUCCGCGUACGTT; sugars from the 5' end r19 d2, backbone not given here)
silencing effect [5]: didn't show any appreciable effect
